# Data published in patent US11713337B2, “Peptide, compositions and method for delivery of agents into cells and tissues” (priority 2019, dated 2023).
# “And” between values parts separate entries of the source, which are not always exact repeats. Equal values may be shown once. “Also recorded” adds a separate entry of the source. Peptide text beside a SMILES is read from it. * marks the point of attachment. 5FAM = O=C1OC2(c3ccc(O)cc3Oc3cc(O)ccc32)c2ccc(C(=O)*)cc21
# B1: Cre recombinase: Cre recombinase protein, approximately 38 Kd (protein, UniProt P06956 1-343, looked up)
# Recombinase cre: MSNLLTVHQNLPALPVDATSDEVRKNLMDMFRDRQAFSEHTWKMLLSVCRSWAAWCKLNNRKWFPAEPEDVRDYLLYLQARGLAVKTIQQHLGQLNMLHRRSGLPRPSDSNAVSLVMRRIRKENVDAGERAKQALAFERTDFDQVRSLMENSDRCQDIRNLAFLGIAYNTLLRIAEIARIRVKDISRTDGGRMLIHIGRTKTLVSTAGVEKALSLGVTKLVERWISVSGVADDPNNYLFCRVRKNGVAAPSATSQLSTRALEGIFEATHRLIYGAKDDSGQRYLAWSGHSARVGAARDMARAGVSIPEIMQAGGWTNVNIVMNYIRNLDSETGAMVRLLEDGD
# B2: decorin: human recombinant decorin, a small leucine rich proteoglycan (protein, UniProt P07585 31-359, looked up)
# Decorin: DEASGIGPEVPDDRDFEPSLGPVCPFRCQCHLRVVQCSDLGLDKVPKDLPPDTTLLDLQNNKITEIKDGDFKNLKNLHALILVNNKISKVSPGAFTPLVKLERLYLSKNQLKELPEKMPKTLQELRAHENEITKVRKVTFNGLNQMIVIELGTNPLKSSGIENGAFQGMKKLSYIRIADTNITSIPQGLPPSLTELHLDGNKISRVDAASLKGLNNLAKLGLSFNSISAVDNGSLANTPHLRELHLDNNKLTRVPGGLAEHKYIQVVYLHNNNISVVGSSDFCPPGHNTKKASYSGVSLFSNPVQYWEIQPSTFRCVYVRSAIQLGNYK
# Experiments:
# retina [1] = details: 1 μg dexamethasone alone or with 1 μg Nuc1
# Protocol: We hypothesized that Nuc1 may facilitate penetration of steroids into tissues, enabling a steroid to be applied in a reduced dosage without loss of efficacy. To test this hypothesis, we injected either 1 μg fluorescently labeled dexamethasone alone or fluorescently labeled dexamethasone in combination with 1 μg Nuc1.
# retina [2] = experiment: Retinal penetration of FAM-labeled Nuc1 after intravitreal injection
# Protocol: Intravitreal and subretinal injections: Mice were anesthetized by injecting intraperitoneally a cocktail mixture containing Ketamine (100 mg/kg, Phoenix™, St Joseph, Mo.) and Xylazine (10 mg/kg, Lloyed, Shenandoah, Iowa) followed by topical application of 0.5% proparacaine hydrochloride (Akorn Inc., Lake Forest, Ill., USA) for topical analgesia to the cornea. Mice were kept warm during anesthesia. lntravitreal and subretinal injections were performed using a 32-gauge needle and a 5μI glass syringe, as previously described (Cashman et al., 2015). […] Four hours post injection (as indicated), eyes were enucleated and fixed in 4% paraformaldehyde. […] Retinal cryosections were taken using a Micron 550 cryostat.
# Four hours post injection, eyes of these mice were enucleated and fixed in 4% paraformaldehyde. Retinal cryosections were generated using a Micron 550 cryostat and sections were imaged using a fluorescent microscope.
# [3] = system: floxed stop tdTomato reporter in retina; experiment: Cre recombinase uptake and gene editing in Ai9 reporter mice (tdTomato); format: in vivo; details: 4 micrograms Cre recombinase alone or with 1 microgram Nuc1, intravitreal
# Excerpt: In these mice, a reporter tdTomato transgene expression cassette is turned on when a foxed stop codon is excised by Cre recombinase. […] The observation that Cre recombinase can enter cells by itself was surprising. However, the above assay is highly sensitive due to the fact that one gene editing event is substantially amplified through the continuous production of protein that accumulates in the cell.
# [4] = system: alkali burn of the cornea; experiment: Alkali burn of the cornea: staining of corneal cryosections (isolectin, SMA, CD45, F4/80, TGF-β1, activated Caspase-3); format: in vivo, C57BL/6 mice
# Excerpt: The filter paper was gently removed and the cornea was rinsed with phosphate buffered saline (PBS) 10 times. […] The treatments were applied topically once a day for seven days. After 7 days, mice were sacrificed by CO2 inhalation. Eyes were enucleated and fixed in 4% paraformaldehyde. Corneal cryosections were taken using a Micron 550 cryostat and stained for α-actin, a marker of fibrosis.
# (§1) Mice were kept warm during anesthesia. Alkali burn was induced in the cornea by applying 2 mm filter paper discs soaked with 1N sodium hydroxide (NaOH) on the central cornea of the right eye for 30 seconds. The filter paper was gently removed from the cornea and the cornea rinsed with phosphate buffered saline (PBS) 10 times to clear residual NaOH. The left eye was left unexposed to NaOH and served as a control. […] The treatments were applied topically once a day for seven days. Images of the eye were captured on day 7 using a digital camera. After 7 days, mice were sacrificed by CO2 inhalation, followed by cervical dislocation. The eyes were enucleated and fixed in 4% paraformaldehyde. Corneal cryosections were taken using a Micron 550 cryostat.
# Immunochemistry: Cryosections were air dried for 10 minutes and washed in PBS for 5 minutes. They were subsequently incubated in 6% normal goat serum and PBS-Triton for 1 hour at room temperature for permeabilization and blocking. The slides were incubated with FITC-conjugated isolectin or with primary antibody against one of following: α-smooth muscle actin (SMA), glial fibrillary acidic protein (GFAP), CD45, transforming growth factor beta (TGF-β1), F4/80, transforming growth factor beta (TGF-β1) (Abcam; ab92486), or activated Caspase-3. This incubation was performed at 4° C. in a moist chamber overnight. For samples treated with antibodies, detection was performed by incubation with a secondary Cy3-conjugated goat anti-rabbit/anti-mouse antibody (Jackson lmmunoResearch, West Grove, Pa.) for 1 hour at room temperature. The slides were washed three times with PBS and mounted in Vectashield anti fade mounting medium containing DAPI to counterstain the nuclei. Imaging of stained sections was performed using an Olympus IX51 microscope and appropriate filters. Images were captured using a Retiga 2000r camera. The intensity of the antibody specific staining was quantified using ImageJ software.
# [5] = system: alkali burn of the cornea; experiment: Alkali burn of the cornea: corneal opacity and H+E histology; format: in vivo, C57BL/6 mice
# Excerpt: as §1
# Histopathology: The eyes were harvested for histology 7 days post-treatment and fixed in Hartman's fixative. After 48 hours, the specimens were dehydrated through alcohol steps and embedded in paraffin. […] sections were cut at different planes, including the optic nerve region, and stained with Hematoxylin & Eosin (H&E). Imaging of stained sections was performed using an Olympus BX51 microscope using a Retiga 2000r camera.
# On day 7, mice were sacrificed for imaging of corneas (FIG. 14A). […] Mice were scored for clinical opacity based on method described by Anderson et al.. […]
# [6] = system: alkali burn of the cornea; experiment: Alkali burn of the cornea: TUNEL assay on corneal cryosections; format: in vivo, C57BL/6 mice; details: 7 days topical treatment
# Excerpt: as §1
# TUNEL assay: To detect cell death, the terminal deoxynucleotidyl transferase-mediated dUTP-biotin nick-end labeling (TUNEL) method was performed on corneal cryosections using the In Situ Death Detection Kit, TMR Red (Sigma), as per the manufacturer's instructions. The sections were imaged, as described above, and images used for quantification of TUNEL positive cells using ImageJ (FIJI version and plug in), as previously described.
# [7] = system: alkali burn of the cornea; experiment: Alkali burn of the cornea: multiplex ELISA of cytokines in corneal lysates; format: in vivo, C57BL/6 mice; details: 7 days topical treatment, Bioplex
# Excerpt: as §1
# Multiplex ELISA: Multiplex ELISA was performed to detect IL-6, IL-17, IL-10, IFN-G, TNF-α, and IL-1β using Bio-plex pro mouse cytokineTh17 A 6 plex group I (Bio-Rad, M6000007NY), as per the manufacturer's instructions. Briefly, alkali burn was induced as described above. Mice were sacrificed on day 7 and corneas were extracted. The corneas were dissected into small pieces and stored at −80° C. in Bioplex cell lysis buffer. Two corneas were pooled together for each sample and 50 μl of the lysate was used in duplicate for each sample. The samples were run using the Bio plex manager MP software and the data was analyzed using Bioplex manager 6.0.
# [8] = system: gliosis in the retina after alkali burn; experiment: Alkali burn of the cornea: GFAP staining of retina (gliosis); format: in vivo, C57BL/6 mice; details: topical to cornea for 7 days after alkali burn
# Excerpt: as §1
# Immunochemistry: Cryosections were air dried for 10 minutes and washed in PBS for 5 minutes. They were subsequently incubated in 6% normal goat serum and PBS-Triton for 1 hour at room temperature for permeabilization and blocking. The slides were incubated with FITC-conjugated isolectin or with primary antibody against one of following: α-smooth muscle actin (SMA), glial fibrillary acidic protein (GFAP), CD45, transforming growth factor beta (TGF-β1), F4/80, transforming growth factor beta (TGF-β1) (Abcam; ab92486), or activated Caspase-3. […] The intensity of the antibody specific staining was quantified using ImageJ software. […]
molecule,measurement,setting,value
C[C@@H]1C[C@H]2[C@@H]3CCC4=CC(=O)C=C[C@]4(C)[C@@]3(F)[C@@H](O)C[C@]2(C)[C@@]1(O)C(=O)CO [dexamethasone],uptake of fluorescently labeled dexamethasone into the retina,retina [1],taken up into the retina
CC[C@H](C)[C@H](NC(=O)[C@H](CO)NC(=O)[C@H](C)NC(=O)c1ccc2c(c1)C(=O)OC21c2ccc(O)cc2Oc2cc(O)ccc21)C(=O)N[C@@H](CCCCN)C(=O)N[C@H](C(=O)N[C@@H](C)C(=O)N[C@H](C(=O)N[C@@H](CO)C(=O)N[C@@H](C)C(=O)NCC(=O)NCC(=O)N[C@@H](CC(=O)O)C(=O)N[C@@H](CCCCN)C(=O)N1CCC[C@H]1C(=O)N[C@@H](CCCNC(=N)N)C(=O)N[C@@H](CCCNC(=N)N)C(=O)O)C(C)C)C(C)C [FAM labeled Nuc1] (5FAM-ASIKVAVSAGGDKPRR-OH),localization in retina (fluorescence microscopy of cryosections),"retina [2]; mouse, in vivo",localized to all layers of the retina
"O=C(O)c1ccc2c(c1)C1(OC2=O)c2ccc(O)cc2Oc2cc(O)ccc21 [6-FAM, reference compound]",localization in retina (fluorescence microscopy of cryosections),"retina [2]; 1 ug in 1 ul H2O intravitreal, four hours post injection, adult mice",unable to penetrate retina
B1,tdTomato positive Muller cells,[3],almost no Muller cells expressing tdTomato
same,tdTomato reporter expression in retina,[3],detectable tdTomato expression
B2,"CD45 staining of cornea, images (leukocytes)",[4]; 7 days topical treatment,reduction in CD45 and F4/80 staining in the anterior region of the stroma
same,"F4/80 staining of cornea, images (macrophages)",[4]; 7 days topical treatment,reduction in CD45 and F4/80 staining in the anterior region of the stroma
same,"SMA staining of cornea, images (fibrosis)",[4]; 7 days topical treatment,modest reduction of SMA staining
same,TGF-β1 expression in cornea (antibody staining),[4]; 7 days topical treatment,lower expression of TGF-β1
same,"activated Caspase-3 staining of cornea, images, relative to PBS treated mice",[4]; 7 days topical treatment,considerable reduction in the staining for activated Caspase-3 in the stroma and endothelium
same,"isolectin (GSL I) staining of cornea, images (neovascularization)",[4]; 7 days topical treatment,obvious reduction in isolectin staining
same,reduction in CD45 staining / CD45-positive cells relative to corneas treated with PBS,[4]; 7 days topical treatment,39.6%
same,reduction in F4/80 staining relative to corneas treated with PBS,[4]; 7 days topical treatment,no significant reduction
same,reduction in isolectin staining relative to PBS treated corneas (quantification),[4]; 7 days topical treatment,not significantly different to that of PBS treated corneas
same,reduction in activated Caspase-3 staining (quantification of fluorescent signal),"[4]; 7 days topical treatment, reference PBS treated (implied)",51.5%
same,reduction in α-actin (SMA) staining relative to PBS (fibrosis),"[4]; topical 0.5 μg decorin with or without 0.5 μg Nuc1 once a day for seven days, from 24 hours after NaOH",33.3% and 33.25%
same,corneal histology (H+E transverse sections),"[5]; 7 days topical treatment, relative to PBS",increase in thickness of the epithelium; also recorded: vacuolization was apparent
same,clinical opacity score (method of Anderson et al.),"[5]; topical once daily for 7 days from 24 hours post alkali burn, PBS scored 4",2.8
same,"TUNEL staining of cornea, images (cell death)",[6],considerable reduction in TUNEL staining in the corneal stroma
same,reduction in TUNEL staining relative to PBS (quantification),[6],44.8%
same,IFN-G expression in corneal lysate relative to PBS treated mice,[7],reduction in expression
same,IL-1β expression in corneal lysate,[7],increased expression
same,IL-6 expression in corneal lysate relative to PBS treated mice,[7],reduction in expression
same,IL-17 expression in corneal lysate relative to PBS treated mice,[7],reduction in expression
same,TNF-α expression in corneal lysate relative to PBS treated mice,[7],reduction in expression
same,"GFAP staining of retina (Muller cell activation, gliosis)",[8],reduced staining relative to the retinas of mice treated with PBS
